# The DeepSol protein solubility set
# Experiment: soluble on expression in E. coli; label from the status in PepcDB or PDB records
row,Sequence,soluble on expression in E. coli
1,MGSDKIHHHHHHMEFDQAKKIVVATIIDQQGLSDRLVGCKAIITSTGRLSYSIPLAWVRERLEVLIRESLYRGSFEVISLANPNDTRQKATLMIDPYLPPQELIILGGGHIAQPLAKIGKLLGYQVAVLDDRPEFVSKDRFPEADKTICCSFDTVENSFDLGPQSNVVIVTRGHQHDLLCLRQMLKYPLAYLGMIGSRRKVAIIRERLLEEGLAVKKLNSVYMPIGLDIGAQTPAEIAVSITAELIKVRRGGKAASIKNIDKKNNDNEAGVFNLGELPSTIDQEILQLTLQAAINHVPAALATVVSTKGSTPRKAGAHMLVWADGRSLGTVGGGQGEAKVRAEAFKIINTSQPILYRISMDAANAAMEGMICGGSMEVFIEPVNGFAQVSGGGGIL,not soluble
2,MSTGKIIQVIGAVIDVEFARDNTPKVYDALNVVEAGLVLEVQQQIGDGVVRTIAMGSSDGLRRGMEVKNTNAPISVPVGHGTLGRIMNVLGEPIDEAGPIEYTEKRSIHQAPPAYDELALSTEILETGIKVVDLICPFAKGGKVGLFGGAGVGKTVTMMELINNIAKEHSGYSVFAGVGERTREGNDFYYEMKDSNVLDKVSLVYGQMNEPPGNRLRVALSGLTIAEGFRDEKRDVLMFIDNIYRYTLAGTEVSALLGRMPSAVGYQPTLAAEMGALQERITSTKTGSITSVQAVYVPADDLTDPSPATTFSHLDATIVLSRQIAELGIYPAVDPLDSTSRQLDPLVVGQDHYETARAVQKVLQRYKELKDIIAILGMDELSDEDKKIVDRARKIQRFLSQPFHVAEVFTGNPGKFVSLKDTVASFKAIVNGEYDHLPEQAFYMVGSIQEAIEKAKTL,not soluble
3,REIADNTYIVLGTMTLNDFNEYFETDLESDNVDTIAGFYLTGVGTIPSQEEKEHFEVESNGKHLELINDKVKDGRVTKLKILVSE,soluble
4,MGHHHHHHSHMARPWTEDGDWTEPGAPGGTEDRPSGGGKANRAHPIKQRPFPYEHKNTWSAQNCKNGSCVLDLSKCLFIQGKLLFAEPKDAGFPFSQDINSHLASLSMARNTSPTPDPTVREALCAPDNLNASIESQGQIKMYINEVCRETVSRCCNSFLQQAGLNLLISMTVINNMLAKSASDLKFPLISEGSGCAKVQVLKPLMGLSEKPVLAGELVGAQMLFSFMSLFIRNGNREILLETPAP,not soluble
5,MKHILIIGATGQIGSELTMELRRRYGNTNVVAGYIQGAEPKGELKESGPSAVVDVTNGEMIESVVKEYHIDTIYNLAALLSVVAESKPKLAWKIGIDGLWNVLEVAREQGCAVFTPSSIGSFGASTPHTQTPQDTIQRPRTMYGVTKVTTELLSDYYFNKYGVDTRAVRFPGIISNVTPPGGGTTDYAVDIYYSAVRGEKFVCPIKEGTLMDMMYMPDALNAAIMLMEADPTKLIHRNAFNIASMSFDPETIFHAIKKHVPAFEMIYDVDPLKQRIADSWPDSLDDTCAREEWGWKPAYDLESMTVDMLEKLREKLKK,not soluble
6,DNIITGRMKPLHWREMKEVDPNRVTLIDARPRQAYEVEHIPGAISMPVEEIRARIGEIPHDKPIYVYCAVGMRGYFASNILRQCGFSNVRNLIGGYRLYSTITADYSSAGQPATAQLPAKDSPSSHTQVPE,not soluble
7,GAHTVDKRFGMDFKEIELIGSGGFGQVFKAKHRIDGKTYVIKRVKYNNEKAEREVKALAKLDHVNIVHYNGCWDGFDYDPETSSKNSSRSKTKCLFIQMEFCDKGTLEQWIEKRRGEKLDKVLALELFEQITKGVDYIHSKKLINRDLKPSNIFLVDTKQVKIGDFGLVTSLKNDGKRTRSKGTLRYMSPEQISSQDYGKEVDLYALGLILAELLHVCDTAFETSKFFTDLRDGIISDIFDKKEKTLLQKLLSKKPEDRPNTSEILRTLTVWKKSPEKNERHTA,soluble
8,MSLDNLITIYDKNDANNLAEHLYDTQGLGALSDWLTATVSNKLNGAEIFQGTYSINGTNADLIVEGRIIQCYVDENRAKQRLRIYYAKTSVIGNTIEVKAEPIFNDIRKSVLNKYDSGTEKITATQAWQNAKVLAKPAIPSQFSFSSLVDTLANVKIEKANFLEFFGGKEGSILDRFHGEFLKDNNTLRHEKSLGTDHKIKAIYTKNLTGLDLEIDAQSVLVGVYPFISSSSEGEDEITLPEEVIFTDYVDDYPAGYVSFVDFKDKATDVATLREAAKDWLKTNIDKQKPQVSGSIELVPLRHQRGYEKFVDLEKVSMGDGVDVYHPQLKVNMSARIVEYTFNVLTNSYDKLVVGNVKTNFLENTENNVSNLINDEGHHHHHH,soluble
